Test results: PMC10450195

Key:
[1] = tested on: LANA peptide (Kaposi's Sarcoma Herpesvirus); assay: fluorescence polarization; conditions: FP: 20 mM HEPES pH 7.5, 150 mM NaCl, 0.5 mM EDTA, 1 mM DTT, 0.05% Triton X-100, 20 C, 50 nM peptide, EMSA: 15 mM HEPES pH 7.5, 150 mM NaCl
[2] = biological target: Homo sapiens nucleosome core particle (human) (UniProt P68431); assay: fluorescence polarisation

Substance	Kd [1]	Kd [2]
H. sapiens NCP	2380 nM	–
Kaposi's Sarcoma Herpesvirus Latency Associated Nuclear Antigen (LANA) peptide, aa. 4-23	–	2380 nM
